# Experimental data: the supplement of paper PMC10567573
# B1: MATN2 (parent)
# chain: FSLKTFKRKSEVERAVKRMRHLST
# Variants of: B1
# Experiment: protein stability index of a GFP-peptide fusion (GPS, HEK-293T) (PSI 1-6); higher = more stable
# Details: c terminus: a fixed tail appended
# 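Also: lentivirally expressed fusions sorted by FACS into six bins by GFP to DsRed ratio, PSI derived from sequencing read proportions per bin multiplied by bin number.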
row,Variant,protein stability index
1,FSLKTFKRKSEVERAWKRMRHLST,1.76
2,FSLKTFKRKSEVERALKRMRHLST,1.51
3,FSLKTFKRKSEVERAEKRMRHLST,2.43
4,FSLKTFKRKSEVERATKRMRHLST,3.1
5,FSLKTFKRKSEVERANKRMRHLST,2.47
6,FSLKTFKRKSEVERAMKRMRHLST,2.93
7,FSLKTFKRKSEVERAIKRMRHLST,2.07
8,FSLKTFKRKSEVERAHKRMRHLST,2.19
9,FSLKTFKRKSEVERAFKRMRHLST,3.4
10,FSLKTFKRKSEVERASKRMRHLST,2.57
11,FSLKTFKRKSEVERAQKRMRHLST,2.92
12,FSLKTFKRKSEVERADKRMRHLST,2.15
13,FSLKTFKRKSEVERAGKRMRHLST,2.71
14,FSLKTFKRKSEVERAPKRMRHLST,2.33
15,FSLKTFKRKSEVERAAKRMRHLST,2.82
16,FSLKTFKRKSEVERARKRMRHLST,2.48
17,FSLKTFKRKSEVERACKRMRHLST,2.48
18,FSLKTFKRKSEVERAYKRMRHLST,2.1
19,FSLKTFKRKSEVERWVKRMRHLST,2.17
20,FSLKTFKRKSEVEREVKRMRHLST,2.73
21,FSLKTFKRKSEVERNVKRMRHLST,2.81
22,FSLKTFKRKSEVERCVKRMRHLST,2.27
23,FSLKTFKRKSEVERRVKRMRHLST,3.91
24,FSLKTFKRKSEVERHVKRMRHLST,2.87

row,Variant,protein stability index
1,FSLKTFKRKSEVERPVKRMRHLST,2.43
2,FSLKTFKRKSEVERGVKRMRHLST,2.35
3,FSLKTFKRKSEVERFVKRMRHLST,2.94
4,FSLKTFKRKSEVERQVKRMRHLST,2.58
5,FSLKTFKRKSEVERSVKRMRHLST,2.33
6,FSLKTFKRKSEVERDVKRMRHLST,2.89
7,FSLKTFKRKSEVERVVKRMRHLST,2.27
8,FSLKTFKRKSEVERYVKRMRHLST,1.59
9,FSLKTFKRKSEVERTVKRMRHLST,2.78
10,FSLKTFKRKSEVERIVKRMRHLST,1.38
11,FSLKTFKRKSEVERMVKRMRHLST,2.2
12,FSLKTFKRKSEVERKVKRMRHLST,2.7
13,FSLKTFKRKSTVERAVKRMRHLST,2.99
14,FSLKTFKRKSVVERAVKRMRHLST,2.38
15,FSLKTFKRKSYVERAVKRMRHLST,2.09
16,FSLKTFKRKSEVERAVMRMRHLST,2.53
17,FSLKTFKRKSEVERAVFRMRHLST,1.75
18,FSLKTFKRKSEVERAVYRMRHLST,1.76
19,FSLKTFKRKSEVERAVTRMRHLST,2.34
20,FSLKTFKRKSEVERAVVRMRHLST,2.69
21,FSLKTFKRKSEVERAVNRMRHLST,2.5
22,FSLKTFKRKSEVERAVRRMRHLST,1.87
23,FSLKTFKRKSEVERAVERMRHLST,2.38
24,FSLKTFKRKSEVERAVSRMRHLST,2.65

row,Variant,protein stability index
1,FSLKTFKRKSEVERAVCRMRHLST,2.35
2,FSLKTFKRKSEVERAVPRMRHLST,3.24
3,FSLKTFKRKSEVERAVLRMRHLST,1.92
4,FSLKTFKRKSEVERAVDRMRHLST,2.92
5,FSLKTFKRKSEVERAVIRMRHLST,2.04
6,FSLKTFKRKSEVERAVHRMRHLST,3.01
7,FSLKTFKRKSEVERAVQRMRHLST,2.13
8,FSLKTFKRKSEVERAVARMRHLST,2.26
9,FSLKTFKRKSEVGRAVKRMRHLST,1.83
10,FSLKTFKRKSEVWRAVKRMRHLST,1.4
11,FSLKTFKRKSEVIRAVKRMRHLST,2.29
12,FSLKTFKRKSEVDRAVKRMRHLST,2.52
13,FSLKTFKRKSEVNRAVKRMRHLST,2.83
14,FSLKTFKRKSEVVRAVKRMRHLST,2.11
15,FSLKTFKRKSEVQRAVKRMRHLST,2.9
16,FSLKTFKRKSEVHRAVKRMRHLST,2.37
17,FSLKTFKRKSEVCRAVKRMRHLST,1.83
18,FSLKTFKRKSEVYRAVKRMRHLST,2.94
19,FSLKTFKRKSEVPRAVKRMRHLST,3.15
20,FSLKTFKRKSEVFRAVKRMRHLST,2.08
21,FSLKTFKRKSEVLRAVKRMRHLST,2.28
22,FSLKTFKRKSEVMRAVKRMRHLST,2.25
23,FSLKTFKRKSEVTRAVKRMRHLST,2.41
24,FSLKTFKRKSEVSRAVKRMRHLST,2.34

row,Variant,protein stability index
1,FSLKTFKRKSEVARAVKRMRHLST,2
2,FSLKTFKRKSEVKRAVKRMRHLST,2.69
3,FSLKTFKRKSEVRRAVKRMRHLST,2.22
4,FSLKTFKRKSEVEWAVKRMRHLST,2.25
5,FSLKTFKRKSEVEVAVKRMRHLST,2.75
6,FSLKTFKRKSEVEDAVKRMRHLST,2.73
7,FSLKTFKRKSEVEEAVKRMRHLST,2.49
8,FSLKTFKRKSEVENAVKRMRHLST,2.46
9,FSLKTFKRKSEVEPAVKRMRHLST,2.49
10,FSLKTFKRKSEVEGAVKRMRHLST,2.15
11,FSLKTFKRKSEVEHAVKRMRHLST,2.28
12,FSLKTFKRKSEVEMAVKRMRHLST,3.08
13,FSLKTFKRKSEVESAVKRMRHLST,2.49
14,FSLKTFKRKSEVECAVKRMRHLST,1.83
15,FSLKTFKRKSEVEKAVKRMRHLST,3.11
16,FSLKTFKRKSEVELAVKRMRHLST,1.96
17,FSLKTFKRKSEVEFAVKRMRHLST,2.65
18,FSLKTFKRKSEVETAVKRMRHLST,2.87
19,FSLKTFKRKSEVERAVKNMRHLST,2.52
20,FSLKTFKRKSEVERAVKPMRHLST,2.36
21,FSLKTFKRKSEVERAVKKMRHLST,1.97
22,FSLKTFKRKSEVERAVKFMRHLST,1.54
23,FSLKTFKRKSEVERAVKDMRHLST,2.8
24,FSLKTFKRKSEVERAVKIMRHLST,2.16

row,Variant,protein stability index
1,FSLKTFKRKSEVERAVKVMRHLST,2.34
2,FSLKTFKRKSEVERAVKHMRHLST,2.4
3,FSLKTFKRKSEVERAVKWMRHLST,2.04
4,FSLKTFKRKSEVERAVKLMRHLST,1.97
5,FSLKTFKRKSEVERAVKQMRHLST,1.93
6,FSLKTFKRKSEVERAVKGMRHLST,2.8
7,FSLKTFKRKSEVERAVKCMRHLST,1.8
8,FSLKTFKRKSEVERAVKMMRHLST,1.93
9,FSLKTFKRKSEVERAVKAMRHLST,1.96
10,FSLKTFKRKSEVERAVKTMRHLST,2.26
11,FSLKTFKRKSEVERAVKYMRHLST,3.03
12,FSLKTFKRKSEVERAVKSMRHLST,2.21
13,FSLKTFKRKSEWERAVKRMRHLST,1.24
14,FSLKTFKRKSEMERAVKRMRHLST,2.11
15,FSLKTFKRKSELERAVKRMRHLST,2.56
16,FSLKTFKRKSEQERAVKRMRHLST,3.15
17,FSLKTFKRKSEKERAVKRMRHLST,3.17
18,FSLKTFKRKSECERAVKRMRHLST,2.25
19,FSLKTFKRKSEGERAVKRMRHLST,2.91
20,FSLKTFKRKSEEERAVKRMRHLST,2.34
21,FSLKTFKRKSEYERAVKRMRHLST,2.12
22,FSLKTFKRKSEHERAVKRMRHLST,2.54
23,FSLKTFKRKSETERAVKRMRHLST,2.38
24,FSLKTFKRKSEAERAVKRMRHLST,2.36

row,Variant,protein stability index
1,FSLKTFKRKSENERAVKRMRHLST,1.87
2,FSLKTFKRKSEPERAVKRMRHLST,2.5
3,FSLKTFKRKSESERAVKRMRHLST,2.98
4,FSLKTFKRKSERERAVKRMRHLST,3.19
5,FSLKTFKRKSEFERAVKRMRHLST,1.4
6,FSLKTFKRKSEVERAVKRMRLLST,1.46
7,FSLKTFKRKSEVERAVKRMRQLST,1.87
8,FSLKTFKRKSEVERAVKRMRTLST,2.72
9,FSLKTFKRKSEVERAVKRMRILST,1.76
10,FSLKTFKRKSEVERAVKRMRNLST,2.4
11,FSLKTFKRKSEVERAVKRMRPLST,2.58
12,FSLKTFKRKSEVERAVKRMRCLST,2.28
13,FSLKTFKRKSEVERAVKRMRRLST,2.41
14,FSLKTFKRKSEVERAVKRMRVLST,1.3
15,FSLKTFKRKSEVERAVKRMRELST,2.28
16,FSLKTFKRKSEVERAVKRMRFLST,1.99
17,FSLKTFKRKSEVERAVKRMRGLST,1.75
18,FSLKTFKRKSEVERAVKRMRKLST,3.76
19,FSLKTFKRKSEVERAVKRMRDLST,2.76
20,FSLKTFKRKSEVERAVKRMRSLST,1.68
21,FSLKTFKRKSEVERAVKRMRYLST,2.84
22,FSLKTFKRKSEVERAVKRMRALST,2.77
23,FSLKTFKRKSEVERAVKRTRHLST,2.84
24,FSLKTFKRKSEVERAVKRVRHLST,2.21

row,Variant,protein stability index
1,FSLKTFKRKSEVERAVKRERHLST,3.34
2,FSLKTFKRKSEVERAVKRHRHLST,2.89
3,FSLKTFKRKSEVERAVKRPRHLST,2.14
4,FSLKTFKRKSEVERAVKRWRHLST,2.9
5,FSLKTFKRKSEVERAVKRFRHLST,2.18
6,FSLKTFKRKSEVERAVKRDRHLST,2.76
7,FSLKTFKRKSEVERAVKRARHLST,3.21
8,FSLKTFKRKSEVERAVKRNRHLST,2.68
9,FSLKTFKRKSEVERAVKRRRHLST,4.54
10,FSLKTFKRKSEVERAVKRLRHLST,2.31
11,FSLKTFKRKSEVERAVKRCRHLST,2.61
12,FSLKTFKRKSEVERAVKRQRHLST,2.57
13,FSLKTFKRKSEVERAVKRYRHLST,2.5
14,FSLKTFKRKSEVERAVKRIRHLST,4.04
15,FSLKTFKRKSEVERAVKRKRHLST,3.67
16,FSLKTFKRKSEVERAVKRSRHLST,2.84
17,FSLKTFKRKSEVERAVKRMGHLST,2.38
18,FSLKTFKRKSEVERAVKRMHHLST,2
19,FSLKTFKRKSEVERAVKRMIHLST,2.82
20,FSLKTFKRKSEVERAVKRMTHLST,2.57
21,FSLKTFKRKSEVERAVKRMLHLST,2.81
22,FSLKTFKRKSEVERAVKRMKHLST,2.59
23,FSLKTFKRKSEVERAVKRMEHLST,2.54
24,FSLKTFKRKSEVERAVKRMYHLST,2.32

row,Variant,protein stability index
1,FSLKTFKRKSEVERAVKRMDHLST,2.54
2,FSLKTFKRKSEVERAVKRMNHLST,2.54
3,FSLKTFKRKSEVERAVKRMQHLST,2.22
4,FSLKTFKRKSEVERAVKRMVHLST,1.6
5,FSLKTFKRKSEVERAVKRMCHLST,2.4
6,FSLKTFKRKSEVERAVKRMFHLST,1.9
7,FSLKTFKRKSEVERAVKRMSHLST,2.42
8,FSLKTFKRKSEVERAVKRMAHLST,2.14
9,FSLKTFKRKSEVERAVKRMWHLST,1.24
10,FSLKTFKRKSEVERAVKRMPHLST,3.21
11,FSLKTFKRKSEVERAVKRMMHLST,2.08
12,FSLKTFKRKSEVERAVKRMRHAST,2.81
13,FSLKTFKRKSEVERAVKRMRHCST,2.79
14,FSLKTFKRKSEVERAVKRMRHDST,2.96
15,FSLKTFKRKSEVERAVKRMRHGST,2.79
16,FSLKTFKRKSEVERAVKRMRHEST,3.18
17,FSLKTFKRKSEVERAVKRMRHKST,3.09
18,FSLKTFKRKSEVERAVKRMRHFST,2.1
19,FSLKTFKRKSEVERAVKRMRHIST,2.36
20,FSLKTFKRKSEVERAVKRMRHHST,2.59
